Measurements taken from patent US20210046160A1, “Immuno Oncology Combination Therapies With IL-2 Conjugates” (Synthorx, Inc., priority 2019, published 2021).

How the values were obtained:
Assay in all cases: cell-based or functional assay
[1] = biological target: IL-2 receptor signaling complexes on human primary CD8+ T cells and NK cells (human) (UniProt P14784)
[2] = biological target: IL-2 receptor signaling complexes on human primary Treg cells (IL-2 Rα expressing) (human) (UniProt P01589)
[3] = biological target: IL-2 receptor αβγ on recombinant human U2OS cells further engineered to express the IL-2Rα subunit (PathHunter IL-2 Cytokine Receptor assay) (UniProt P01589)
[4] = biological target: IL-2βγ receptor complex on recombinant human U2OS cells (PathHunter IL-2 Cytokine Receptor assay) (UniProt P14784)

Sequence of K43_30kD (P60568 other isoform, or with tags, fused parts or gaps limits assumed): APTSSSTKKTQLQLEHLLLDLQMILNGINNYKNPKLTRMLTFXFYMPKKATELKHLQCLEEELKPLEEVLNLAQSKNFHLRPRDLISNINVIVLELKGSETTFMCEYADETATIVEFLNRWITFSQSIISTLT
Sequence of IL-2 receptor signaling complexes on human primary CD8+ T cells and NK cells (human) (P14784 27-551, chain 1 of 2): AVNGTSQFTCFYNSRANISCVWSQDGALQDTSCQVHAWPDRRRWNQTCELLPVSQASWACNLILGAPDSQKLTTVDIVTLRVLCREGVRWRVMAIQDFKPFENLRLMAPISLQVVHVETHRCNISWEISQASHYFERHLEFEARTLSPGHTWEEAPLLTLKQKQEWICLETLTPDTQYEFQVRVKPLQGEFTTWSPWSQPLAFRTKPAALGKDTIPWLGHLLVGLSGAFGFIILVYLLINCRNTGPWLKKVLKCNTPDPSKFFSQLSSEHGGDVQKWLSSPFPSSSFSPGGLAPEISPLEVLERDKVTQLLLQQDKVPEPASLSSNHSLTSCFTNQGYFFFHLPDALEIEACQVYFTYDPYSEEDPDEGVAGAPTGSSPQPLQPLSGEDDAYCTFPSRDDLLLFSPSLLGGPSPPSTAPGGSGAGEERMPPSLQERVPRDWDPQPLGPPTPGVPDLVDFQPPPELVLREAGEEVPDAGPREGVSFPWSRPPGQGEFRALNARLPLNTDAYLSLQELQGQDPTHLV
Sequence of IL-2 receptor signaling complexes on human primary CD8+ T cells and NK cells (human) (P31785 23-369, chain 2 of 2, further chain): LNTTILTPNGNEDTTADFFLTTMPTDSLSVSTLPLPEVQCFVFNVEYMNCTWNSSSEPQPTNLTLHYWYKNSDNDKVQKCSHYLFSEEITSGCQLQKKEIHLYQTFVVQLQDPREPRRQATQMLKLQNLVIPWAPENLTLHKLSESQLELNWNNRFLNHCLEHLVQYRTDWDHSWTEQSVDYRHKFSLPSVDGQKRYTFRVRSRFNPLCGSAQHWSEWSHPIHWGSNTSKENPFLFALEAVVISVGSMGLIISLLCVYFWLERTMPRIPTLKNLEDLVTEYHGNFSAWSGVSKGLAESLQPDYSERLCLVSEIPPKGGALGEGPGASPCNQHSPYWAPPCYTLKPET
Sequence of F42_30kD (P60568 other isoform, or with tags, fused parts or gaps limits assumed): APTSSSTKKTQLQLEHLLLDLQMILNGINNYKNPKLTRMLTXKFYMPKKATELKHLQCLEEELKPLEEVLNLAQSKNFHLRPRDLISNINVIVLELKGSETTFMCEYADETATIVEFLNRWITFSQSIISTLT
Sequence of IL-2 receptor signaling complexes on human primary Treg cells (IL-2 Rα expressing) (human) (P01589 22-272, chain 1 of 3): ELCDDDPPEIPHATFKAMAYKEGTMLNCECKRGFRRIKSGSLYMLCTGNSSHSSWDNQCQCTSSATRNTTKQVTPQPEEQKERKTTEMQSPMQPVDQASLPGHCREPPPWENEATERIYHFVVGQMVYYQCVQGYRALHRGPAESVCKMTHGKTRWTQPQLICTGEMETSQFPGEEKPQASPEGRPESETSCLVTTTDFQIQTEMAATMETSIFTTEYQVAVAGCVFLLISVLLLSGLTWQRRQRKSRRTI
Sequence of IL-2 receptor signaling complexes on human primary Treg cells (IL-2 Rα expressing) (human) (P14784 27-551, chain 2 of 3, further chain): as the sequence (P14784 27-551, chain 1 of 2) above
Sequence of IL-2 receptor signaling complexes on human primary Treg cells (IL-2 Rα expressing) (human) (P31785 23-369, chain 3 of 3, further chain): as the sequence (P31785 23-369, chain 2 of 2, further chain) above
Sequence of K35 (10 kD PEGylated IL-2 conjugate, Table 2) (P60568 other isoform, or with tags, fused parts or gaps limits assumed): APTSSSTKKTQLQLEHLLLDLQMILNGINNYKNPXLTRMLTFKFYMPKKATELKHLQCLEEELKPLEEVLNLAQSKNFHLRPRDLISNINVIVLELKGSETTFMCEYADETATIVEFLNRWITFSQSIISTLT

Substance | EC50 for pSTAT5 signaling; CD8+ T Cells [1] | EC50 for pSTAT5 signaling; NK Cells [1] | EC50 for pSTAT5 signaling; Treg Cells [2] | EC50 (nM), PathHunter IL-2 Cytokine Receptor assay, αβγ [3] | EC50 (nM), PathHunter IL-2 Cytokine Receptor assay, βγ [4]
F42_30kD (from UniProt P60568 21-153) (ligand) | 108000 pg/mL | 16400 pg/mL | 36900 pg/mL |  | 
K43_30kD (from UniProt P60568 21-153) (ligand) | 50500 pg/mL | 9000 pg/mL | 4800 pg/mL |  | 
T41 (10 kD PEGylated IL-2 conjugate, Table 2) (from UniProt P60568 21-153) (ligand) |  |  |  | 0.0489 nM | 6.37 nM
K43 (10 kD PEGylated IL-2 conjugate, Table 2) (from UniProt P60568 21-153) (ligand) |  |  |  | 0.131 nM | 9.84 nM
R38 (10 kD PEGylated IL-2 conjugate, Table 2) (from UniProt P60568 21-153) (ligand) |  |  |  | 0.165 nM | 4.16 nM
F42 (10 kD PEGylated IL-2 conjugate, Table 2) (from UniProt P60568 21-153) (ligand) |  |  |  | 0.515 nM | 6.09 nM

The remaining lines, values ahead:

EC50 for pSTAT5 signaling; CD8+ T Cells [1] | EC50 for pSTAT5 signaling; NK Cells [1] | EC50 for pSTAT5 signaling; Treg Cells [2] | EC50 (nM), PathHunter IL-2 Cytokine Receptor assay, αβγ [3] | EC50 (nM), PathHunter IL-2 Cytokine Receptor assay, βγ [4] | Substance
 |  |  | 0.083 nM | 9.99 nM | V69* (30 kD PEGylated IL-2 conjugate, Table 2) (from UniProt P60568 21-153) (ligand)
 |  |  |  | 6.75 nM | K35 (10 kD PEGylated IL-2 conjugate, Table 2) (from UniProt P60568 21-153) (ligand)
 |  |  | 0.11 nM | 9.06 nM | Y45* (30 kD PEGylated IL-2 conjugate, Table 2) (from UniProt P60568 21-153) (ligand)
